For two substances, percent of FGFR3 present as dimer results are on record in article PMC11217727.

The target in experiment [1] is FGFR3 S249C stably expressed in BaF3 cells (human) (UniProt P22607). Put plainly: nonreducing SDS-PAGE with Western blot. For orientation: In western blotting, separated proteins are transferred to a membrane and probed.
For experiment [2], the target named is FGFR3 S249C stably expressed in FaDu head and neck cancer cells (human) (UniProt P22607). Put plainly: nonreducing SDS-PAGE with Western blot.

The substance “FGFR3 S249C stably expressed in BaF3 cells (from UniProt P22607 23-806) (receptor)” registered a percent of FGFR3 present as dimer in experiment [1] of 6%.
For “FGFR3 S249C stably expressed in FaDu head and neck cancer cells (from UniProt P22607 23-806) (receptor)”, the percent of FGFR3 present as dimer in experiment [2] is 70%.
